Reference: the supplement of paper PMC9233669
This sample holds only a part of the variants without activity.

How the values were obtained:
biotinyl-Phe-oxazolone = experiment: self-aminoacylation, catalytic enhancement (BFO) (fold over background); higher = more active; k-Seq, kA / k0A0; sequences stand for … in GGGAAUGGAUCCACAUCUACGAAUUC…UUCACUGCAGACUUGACGAAGCUG
Method in brief: (§1)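 Working in 50 μL HEPES/NaCl/KCl/MgCl2/CaCl2 buffer with 5% acetonitrile at pH 6.9–7.0, mutagenized RNA pools (0.43 μM; 21-nt variable region) were reacted with 2–1250 μM of each biotinyl-aminoacyl-oxazolone for 90 minutes at room temperature. Streptavidin capture followed, with quantification by triplicate qPCR and Illumina sequencing. Catalytic enhancement is reported as median kA over the uncatalyzed rate, the low-activity peak of a bimodal Gaussian fit to the data.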

biotinyl-Ile-oxazolone = experiment: self-aminoacylation, catalytic enhancement (BIO) (fold over background); higher = more active; k-Seq, kA / k0A0; sequences stand for … in GGGAAUGGAUCCACAUCUACGAAUUC…UUCACUGCAGACUUGACGAAGCUG
Method in brief: as §1

biotinyl-Val-oxazolone = experiment: self-aminoacylation, catalytic enhancement (BVO) (fold over background); higher = more active; k-Seq, kA / k0A0; sequences stand for … in GGGAAUGGAUCCACAUCUACGAAUUC…UUCACUGCAGACUUGACGAAGCUG
Method in brief: as §1

biotinyl-Leu-oxazolone = experiment: self-aminoacylation, catalytic enhancement (BLO) (fold over background); higher = more active; k-Seq, kA / k0A0; sequences stand for … in GGGAAUGGAUCCACAUCUACGAAUUC…UUCACUGCAGACUUGACGAAGCUG
Method in brief: as §1

biotinyl-Trp-oxazolone = experiment: self-aminoacylation, catalytic enhancement (BWO) (fold over background); higher = more active; k-Seq, kA / k0A0; sequences stand for … in GGGAAUGGAUCCACAUCUACGAAUUC…UUCACUGCAGACUUGACGAAGCUG
Method in brief: as §1

biotinyl-Met-oxazolone = experiment: self-aminoacylation, catalytic enhancement (BMO) (fold over background); higher = more active; k-Seq, kA / k0A0; sequences stand for … in GGGAAUGGAUCCACAUCUACGAAUUC…UUCACUGCAGACUUGACGAAGCUG
Method in brief: as §1

Row | Sequence | self-aminoacylation (biotinyl-Phe-oxazolone) | self-aminoacylation (biotinyl-Ile-oxazolone) | self-aminoacylation (biotinyl-Val-oxazolone) | self-aminoacylation (biotinyl-Leu-oxazolone) | self-aminoacylation (biotinyl-Trp-oxazolone) | self-aminoacylation (biotinyl-Met-oxazolone)
1 | AAGUUUACUAAUAGUCGCAAG [Fam3.1 aminoacylation ribozyme variant] | 2.7 | 1.4 | 1.32 | 1.3 | 1.5 | 1.23
2 | AAGUUUACUAAUAGUCGCUAG [Fam3.1 aminoacylation ribozyme variant] | 2.43 | 1.39 | 1.23 | 1.26 | 1.69 | 1.29
3 | AAGUUUACUACUAGUCGCAAG [Fam3.1 aminoacylation ribozyme variant] | 2.04 | 1.57 | 1.6 | 1.27 | 1.76 | 1.46
4 | AAGUUUACUCAUAGUCGCAAG [Fam3.1 aminoacylation ribozyme variant] | 2.83 | 1.65 | 1.43 | 1.8 | 1.88 | 1.58
5 | AAGUUUACUGAUAGUCGCAAG [Fam3.1 aminoacylation ribozyme variant] | 2.67 | 1.62 | 1.32 | 1.38 | 1.55 | 1.02
6 | AAGUUUACUUAUAGUCGCAAG [Fam3.1 aminoacylation ribozyme variant] | 2.5 | 1.86 | 1.58 | 1.39 | 1.74 | 1.92
7 | AAGUUUCCUAAAAGUCGCAAG [Fam3.1 aminoacylation ribozyme variant] | 2.23 | 1.7 | 1.57 | 2.06 | 1.71 | 1.64
8 | AAGUUUCCUAAUAGUCACAAG [Fam3.1 aminoacylation ribozyme variant] | 2.29 | 1.8 | 1.61 | 1.64 | 1.23 | 1.77
9 | AAGUUUCCUAAUAGUCCCAAG [Fam3.1 aminoacylation ribozyme variant] | 2.59 | 1.57 | 1.73 | 1 | 1.48 | 1.5
10 | AAGUUUGAUAAUAGUCGUAAG [Fam3.1 aminoacylation ribozyme variant] | 1.38 | 0.716 | 0.603 | 0.65 | 0.783 | 0.625
11 | AAGUUUGAUAAUAGUCUCAAG [Fam3.1 aminoacylation ribozyme variant] | 1.46 | 0.737 | 0.703 | 0.638 | 0.754 | 0.731
12 | AAGUUUGAUACUAGUCGCAAG [Fam3.1 aminoacylation ribozyme variant] | 1.36 | 1.5 | 1.25 | 1.37 | 0.887 | 0.811
13 | AAGUUUGAUAGUAGUCGCAAG [Fam3.1 aminoacylation ribozyme variant] | 0.93 | 0.973 | 0.979 | 0.977 | 1.21 | 1.17
14 | AAGUUUGAUCAUAGUCGCAAG [Fam3.1 aminoacylation ribozyme variant] | 2.45 | 1.69 | 1.76 | 1.62 | 1.2 | 1.55
15 | AAGUUUGAUGAUAGUCGCAAG [Fam3.1 aminoacylation ribozyme variant] | 2.4 | 1.78 | 1.49 | 1.63 | 1.4 | 1.49
16 | AAGUUUGCAAAGAGUCGCAAG [Fam3.1 aminoacylation ribozyme variant] | 1.41 | 0.841 | 0.832 | 0.949 | 1.54 | 0.929
17 | AAGUUUGCAAAUAGUCGCAUG [Fam3.1 aminoacylation ribozyme variant] | 0.739 | 1.14 | 0.978 | 0.874 | 1.46 | 1.07
18 | AAGUUUGCAAAUAUUCGCAAG [Fam3.1 aminoacylation ribozyme variant] | 1.3 | 0.999 | 1.03 | 1.09 | 1.35 | 1.25
19 | AAGUUUGCCAAUAGUCGGAAG [Fam3.1 aminoacylation ribozyme variant] | 1.28 | 1.14 | 0.968 | 0.941 | 0.79 | 0.781
20 | AAGUUUGCGAAGAGUCGCAAG [Fam3.1 aminoacylation ribozyme variant] | 1.49 | 1.36 | 1.21 | 1.04 | 1 | 0.955
21 | AAGUUUGCGAAUAGUCGCAAA [Fam3.1 aminoacylation ribozyme variant] | 1.97 | 2.03 | 1.57 | 1.38 | 1.31 | 2.22
22 | AAGUUUGCGAAUCGUCGCAAG [Fam3.1 aminoacylation ribozyme variant] | 1.79 | 1.31 | 1.1 | 0.942 | 1 | 1.19
23 | AAGUUUGCGACUAGUCGCAAG [Fam3.1 aminoacylation ribozyme variant] | 2.33 | 1.78 | 1.34 | 1.34 | 1.67 | 1.73
24 | AAGUUUGCGUAUAGUCGCAAG [Fam3.1 aminoacylation ribozyme variant] | 1.22 | 0.888 | 0.996 | 0.753 | 1.23 | 1.21
25 | AAGUUUGCUAAAAAUCGCAAG [Fam3.1 aminoacylation ribozyme variant] | 0.949 | 1.09 | 0.721 | 0.891 | 0.986 | 0.925
26 | AAGUUUGCUAAAAGCCGCAAG [Fam3.1 aminoacylation ribozyme variant] | 1.42 | 0.613 | 0.689 | 0.63 | 1.08 | 0.604
